Results: PMC11374337 (2024)

Legend:
[1] = target: paxillin LIM2/3 tandem domain (aa380-499) (human) (UniProt P49023); test: NMR titration; 1H-15N HSQC, 250-300 μM 15N-labelled paxillin LIM2/3 (wt or 4A), unlabelled integrin β3 tail added; 298 K, 50 mM Na2HPO4, 150 mM NaCl, 0.1 mM ZnSO4, 1 mM DTT, 5% D2O, pH 7.5; global fit of CSPs
[2] = target: cytoplasmic tail of human integrin β1 (aa758-798) (human) (UniProt P05556); test: NMR titration; 1H-15N HSQC, 300 μM 15N-labelled integrin β tail, unlabelled paxillin LIM2/3 added; 298 K, 50 mM Na2HPO4, 150 mM NaCl, 0.1 mM ZnSO4, 1 mM DTT, 5% D2O, pH 6.2; global fit of CSPs to a one site binding model
[3] = target: cytoplasmic tail of human integrin β3 (aa748-788) (human) (UniProt P05106); test: as above
[4] = target: T1, ITGB1 (Homo sapiens (Human), UniProt P05556); test: NMR
T1 chain: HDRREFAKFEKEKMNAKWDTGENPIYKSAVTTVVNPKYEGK

[5] = target: T2, ITGB3 (Homo sapiens (Human), UniProt P05106); test: NMR
T2 chain: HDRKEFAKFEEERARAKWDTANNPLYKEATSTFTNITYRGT

## cytoplasmic tail of human integrin β3 (aa748-788) (from UniProt P05106 748-788) (domain or fragment)
[1]
  Kd: 532 µM

## paxillin LIM2/3 tandem domain (aa380-499) (from UniProt P49023-2 380-499) (domain or fragment)
[2]
  Kd: 52 µM
[3]
  Kd: 528 µM
  fraction bound at the end of the titration: 70%

B1: paxillin (protein)
chain: SPRCYYCNGPILDKVVTALDRTWHPEHFFCAQCGAFFGPEGFHEKDGKAYCRKDYFDMFAPKCGGCARAILENYISALNTLWHPECFVCRECFTPFVNGSFFEHDGQPYCEVHYHERRGS
[4]
  Kd: 52 µM
[5]
  Kd: 528 µM
